By Kd is commonly meant the equilibrium constant for the complex coming apart.

Data set [1] has as its target T1, IFNγ (human) (UniProt P01579).
T1 sequence: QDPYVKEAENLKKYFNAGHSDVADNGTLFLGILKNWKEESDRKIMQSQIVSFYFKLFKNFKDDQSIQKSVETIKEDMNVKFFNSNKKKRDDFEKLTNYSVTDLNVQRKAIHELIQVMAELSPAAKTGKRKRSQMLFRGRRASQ
As to the kind of experiment: SPR. To be noted: biotin-dT at T53, SPR: 1x PBS (1 mM KH2PO4, 3 mM Na2HPO4, 155 mM NaCl; 205 mM NaCl for IFNγ), pH 7.4, 0.05% Nonidet P-40, 25°C, EMSA: 1x PBS, 0.05% NP-40, 25°C, 25 nM DNA, 50 nM ….

Data set [2] addresses T1, IFNγ (human). To be noted: N28 and N39 = Ds; biotin-dT at T53; SPR: 1x PBS (1 mM KH2PO4, 3 mM Na2HPO4, 155 mM NaCl; 205 mM NaCl for IFNγ), pH 7.4, 0.05% Nonidet P-40, 25°C; EMSA: 1x PBS, 0.05% NP-40, 25°C, 25 nM DNA, 50 nM …; cited from earlier work.
The subject of data set [3] is T2, VEGF165 (human), P15692-4.
T2 sequence: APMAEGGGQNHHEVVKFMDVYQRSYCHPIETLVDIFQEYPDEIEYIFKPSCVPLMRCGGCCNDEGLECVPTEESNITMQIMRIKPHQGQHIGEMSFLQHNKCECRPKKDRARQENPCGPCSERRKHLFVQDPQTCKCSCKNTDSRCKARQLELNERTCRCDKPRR
The experiment in a line: SPR. To be noted: biotin-dT at T54, SPR: 1x PBS (1 mM KH2PO4, 3 mM Na2HPO4, 155 mM NaCl; 205 mM NaCl for IFNγ), pH 7.4, 0.05% Nonidet P-40, 25°C, EMSA: 1x PBS, 0.05% NP-40, 25°C, 25 nM DNA, 50 nM ….

The subject of data set [4] is T2, VEGF165 (human), P15692-4. To be noted: N25 and N34 = Ds (7-(2-thienyl)imidazo[4,5-b]pyridine); biotin-dT at T54; SPR: 1x PBS (1 mM KH2PO4, 3 mM Na2HPO4, 155 mM NaCl; 205 mM NaCl for IFNγ), pH 7.4, 0.05% Nonidet P-40, 25°C; EMSA: 1x PBS, 0.05% NP-40, 25°C, 25 nM DNA, 50 nM …; cited from earlier work. (In general: In EMSA bound probe runs differently from free probe, usually more slowly.)

Where two headings read alike, the source gives them in different places.

Take “CCCGCCCGGGTCCGCGAAGCGGTAGGTATGGGCTAGGCAGCTGGCGGGCGCGTAGCG [I-Apt4 (AA)]”: the equilibrium dissociation constant (Kd) in the data set with IFNγ (human) [1] amounted to 16 nM.

Regarding “CCCGCCCGGGTCCGCGAAGCGGTAGGTNTGGGCTAGGCNGCTGGCGGGCGCGTAGCG [I-Apt1 (DD)]”, the Kd in the data set with IFNγ (human) [2] was 0.033 nM; with IFNγ (human) [1] (N28 and N39 = Ds), 0.013 nM.

Sequence “GCGGTAAGCCGCGTCCGAAGGGGCATGCGGCGAACCCGAATGGGTCCGCCGCGTAGCG [V-Apt4 (AA)]” had a Kd in data set [3] of 0.16 nM.

For the sequence “GCGGTAAGCCGCGTCCGAAGGGGCATGCGGCGANCCCGAATGGGTCCGCCGCGTAGCG [V-Apt2 (AD)]”, in data set [3] (N34 = Ds), the Kd turned out to be 0.002 nM.

Sequence “GCGGTAAGCCGCGTCCGAAGGGGCNTGCGGCGAACCCGAATGGGTCCGCCGCGTAGCG [V-Apt3 (DA)]” registered a Kd in data set [3] (N25 = Ds) of 0.058 nM.

On to “GCGGTAAGCCGCGTCCGAAGGGGCNTGCGGCGANCCCGAATGGGTCCGCCGCGTAGCG [V-Apt1 (DD)]”, for which the Kd in data set [4] is 0.001 nM; in data set [3] (N25 and N34 = Ds (7-(2-thienyl)imidazo[4,5-b]pyridine)), 0.0016 nM.

The values above are taken from publication PMC6895277.
